Reference: patent US8557771B2, “Homodimer of insulinotropic peptide analogues and method for preparation thereof and use thereof” (Chongqing Fagen Biomedical Inc., priority 2009, dated 2013)
Bridge positions count the residues as written; N and C are the ends. Ends that are not written are not given here. I, II: the chains in the order shown.

Test system: Balb/c mice
Assay: Blood sugar regulation in mice in vivo after intraperitoneal drug and glucose injection
Conditions: 3 hours after administration; 100 μl of 10 nmol/L drug i.p. with 200 μl of 40% glucose; FIG. 5
Procedure: After fasting overnight, mice were intraperitoneally injected respectively with 100 μl of different drugs that were dissolved to 10 nmol/L in a 10 mmol/L sodium phosphate buffer (pH6.5), and meanwhile injected with 200 μl of glucose solution (40%). Blood was sampled at 30, 60, 120, and 180 min after drug administration and blood sugar was assayed (Blood sugar meter, LifeScan, Inc.). Then, 200 μl of glucose solution (40%) was intraperitoneally injected again at 24 hours, 48 hours, 72 hours and 96 hours after drug administration, respectively. Blood was sampled at 30 and 60 min after glucose administration and blood sugar was assayed (Blood sugar meter, LifeScan, Inc.).

Molecule	blood sugar level
Ex4C-Ex4C: Homodimer of Ex4C(NH2) (SEQ ID NO: 3), joined by a disulfide bond between the C-terminal Cys residues (disulfide homodimer, C-terminal amide; Ex4C peptide sequence) chain 1: HGEGTFTSDLSKQMEEEAVRLFIEWLKNGGSGGSC chain 2: HGEGTFTSDLSKQMEEEAVRLFIEWLKNGGSGGSC	well-regulated
Di-GLP-G8C: Homodimer of GLP-G8C (SEQ ID NO: 4), formed by oxidation at the C-terminal Cys (disulfide I:35-II:35) chain 1: HGEGTFTSDVSSYLEGQAAKEFIAWLVKGGGGGSC chain 2: HGEGTFTSDVSSYLEGQAAKEFIAWLVKGGGGGSC	well-regulated
